# According to PMC7707506, “The crystal structure of mouse IRG1 suggests that cis-aconitate decarboxylase has an open and closed conformation” (PLoS ONE, 2020):
# Molecular target: the molecule itself
# Assay: SEC-MALS; Superdex 200 10/300, 20 mM Tris-HCl pH 8.0, 150 mM NaCl, 0.4 mL/min, 25°C; BSA as the reference
protein,measurement,value
"full-length mouse IRG1 (immune responsive gene 1) (enzyme, Mus musculus (mouse), UniProt P54987 1-488, looked up, immune responsive gene 1 (IRG1, cis-aconitate decarboxylase), Mus musculus, NCBI NP_032418.1, full length, residues 1 to 488, cloned into pET21a (NdeI/XhoI); In the crystal, molecule A was modelled from residues 5 to 463 and molecule B from residues 4 to 460; the rest was not traceable; also called cis-aconitate decarboxylase; CAD; source: E. coli BL21 (DE3), purified (Ni-NTA, SEC); not shown: …) MMLKSVTESFAGMIHGLKVNHLTDGIIRRSKRMILDSLGVGFLGTGTEVFHKVTQYSKIYSSNTSSTVWGRPDFRLPPTYAAFVNGVAVHSMDFDDTWHPATHPSGAVLPVLTALSEALPQIPKFSGLDLLLAFNVGIEVQGRLMHFSKEAKDIPKRFHPPSVVGTLGSAAAASKFLGLSLTKCREALAIAVSHAGAPIANAATQTKPLHIGNAAKHGMEATFLAMLGLQGNKQILDLGSGFGAFYANYSPEDLPSLDSHIWLLDQQDVAFKSFPAHLATHWVADAAAAVRKHLVTPERALFPADHIERIVLRIPDVQYVNRPFPDSEHEARHSFQYVACASLLDGSITVPSFHSQQVNRPQVRELLKKVKLEHPPDNPPSFDTLYCEISITLKDGTTFTERSDTFYGHWRKPLSQEDLRNKFRANASKMLCRDTVESLITVVEKLEDLEDCSVLTRLLKGPSVQDEASKLSSMSSFDHTTLPRFTNI",stoichiometry N,2
